# According to PMC9482650, “Quantitative fragmentomics allow affinity mapping of interactomes” (Nature Communications, 2022):
# Target: T1, APBA2_1, Q99767
# T1 sequence (Q99767 563-664, limits assumed, looked up): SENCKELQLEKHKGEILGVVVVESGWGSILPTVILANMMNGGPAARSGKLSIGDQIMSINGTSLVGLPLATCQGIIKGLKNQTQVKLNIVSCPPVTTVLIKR
# Assay: holdup assay
# Set-up: key: below the threshold = too weak to quantify, mostly under pKd 3.1 to 4
# Details: plain residues with an end cap or a label only (N-terminal biotin on a linker: ado-ado)
row,Binder,pKd
1,"SPDRDRESIV [SCN5A, Q14524]",below the threshold
2,"PPGKHLVTEV [KCNA7, Q96RP8]",below the threshold

# Target: T2, APBA3_1, O96018
# T2 sequence (O96018 389-490, limits assumed, looked up): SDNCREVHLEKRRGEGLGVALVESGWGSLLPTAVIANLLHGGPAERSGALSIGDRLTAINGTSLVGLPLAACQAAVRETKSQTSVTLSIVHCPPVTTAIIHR
# Assay: holdup assay
# Set-up: key: below the threshold = too weak to quantify, mostly under pKd 3.1 to 4
# Details: plain residues with an end cap or a label only (N-terminal biotin on a linker: ado-ado)
row,Binder,pKd
1,"SPDRDRESIV [SCN5A, Q14524]",below the threshold
2,"PPGKHLVTEV [KCNA7, Q96RP8]",below the threshold

# Target: T3, ARHGEF11, O15085
# T3 sequence (O15085 42-136, limits assumed, looked up): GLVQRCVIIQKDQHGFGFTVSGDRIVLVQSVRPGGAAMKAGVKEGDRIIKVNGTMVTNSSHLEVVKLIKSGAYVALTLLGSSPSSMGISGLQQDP
# Assay: holdup assay
# Set-up: key: below the threshold = too weak to quantify, mostly under pKd 3.1 to 4
# Details: plain residues with an end cap or a label only (N-terminal biotin on a linker: ado-ado)
row,Binder,pKd
1,"SPDRDRESIV [SCN5A, Q14524]",3.51
2,"PPGKHLVTEV [KCNA7, Q96RP8]",5.2

# Target: T4, CARD11, Q9BXL7
# T4 sequence (Q9BXL7 662-765, limits assumed, looked up): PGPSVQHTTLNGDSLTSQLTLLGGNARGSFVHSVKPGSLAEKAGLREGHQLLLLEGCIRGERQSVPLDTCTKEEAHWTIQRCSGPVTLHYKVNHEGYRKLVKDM
# Assay: holdup assay
# Set-up: key: below the threshold = too weak to quantify, mostly under pKd 3.1 to 4
# Details: plain residues with an end cap or a label only (N-terminal biotin on a linker: ado-ado)
row,Binder,pKd
1,"SPDRDRESIV [SCN5A, Q14524]",below the threshold
2,"PPGKHLVTEV [KCNA7, Q96RP8]",below the threshold

# Target: CASK, O14936
# Assay: holdup assay
# Set-up: key: below the threshold = too weak to quantify, mostly under pKd 3.1 to 4
# Details: plain residues with an end cap or a label only (N-terminal biotin on a linker: ado-ado)
# Sequence of CASK, O14936 (O14936 487-570): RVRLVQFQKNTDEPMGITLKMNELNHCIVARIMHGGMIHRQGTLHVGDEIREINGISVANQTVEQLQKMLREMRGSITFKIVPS
row,Binder,pKd
1,"SPDRDRESIV [SCN5A, Q14524]",below the threshold
2,"PPGKHLVTEV [KCNA7, Q96RP8]",below the threshold

# Target: T5, FRMPD1, Q5SYB0
# T5 sequence (Q5SYB0 52-145, limits assumed, looked up): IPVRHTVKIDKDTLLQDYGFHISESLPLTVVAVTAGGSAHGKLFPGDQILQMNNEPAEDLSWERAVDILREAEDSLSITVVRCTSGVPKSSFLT
# Assay: holdup assay
# Set-up: key: below the threshold = too weak to quantify, mostly under pKd 3.1 to 4
# Details: plain residues with an end cap or a label only (N-terminal biotin on a linker: ado-ado)
row,Binder,pKd
1,"SPDRDRESIV [SCN5A, Q14524]",below the threshold
2,"PPGKHLVTEV [KCNA7, Q96RP8]",below the threshold

# Target: FRMPD2_1, Q68DX3
# Assay: holdup assay
# Set-up: key: below the threshold = too weak to quantify, mostly under pKd 3.1 to 4
# Details: plain residues with an end cap or a label only (N-terminal biotin on a linker: ado-ado)
# Sequence of FRMPD2_1, Q68DX3 (Q68DX3 770-861): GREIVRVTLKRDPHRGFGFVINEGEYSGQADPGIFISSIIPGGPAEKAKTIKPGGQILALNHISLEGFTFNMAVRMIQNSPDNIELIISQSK
row,Binder,pKd
1,"SPDRDRESIV [SCN5A, Q14524]",below the threshold
2,"PPGKHLVTEV [KCNA7, Q96RP8]",below the threshold

# Target: GRIP2_4, Q9C0E4
# Assay: holdup assay
# Set-up: key: below the threshold = too weak to quantify, mostly under pKd 3.1 to 4
# Details: plain residues with an end cap or a label only (N-terminal biotin on a linker: ado-ado)
# Sequence of GRIP2_4, Q9C0E4 (Q9C0E4 446-548): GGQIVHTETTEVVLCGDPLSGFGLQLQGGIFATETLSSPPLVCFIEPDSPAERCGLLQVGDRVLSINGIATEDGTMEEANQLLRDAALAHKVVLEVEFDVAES
row,Binder,pKd
1,"SPDRDRESIV [SCN5A, Q14524]",below the threshold
2,"PPGKHLVTEV [KCNA7, Q96RP8]",below the threshold

# Target: GRIP2_7, Q9C0E4
# Assay: holdup assay
# Set-up: key: below the threshold = too weak to quantify, mostly under pKd 3.1 to 4
# Details: plain residues with an end cap or a label only (N-terminal biotin on a linker: ado-ado)
# Sequence of GRIP2_7, Q9C0E4 (Q9C0E4 934-1023): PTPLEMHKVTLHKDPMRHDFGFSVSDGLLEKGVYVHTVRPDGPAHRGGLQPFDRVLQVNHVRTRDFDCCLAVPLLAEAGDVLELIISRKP
row,Binder,pKd
1,"SPDRDRESIV [SCN5A, Q14524]",below the threshold
2,"PPGKHLVTEV [KCNA7, Q96RP8]",below the threshold

# Target: T6, HTRA3, P83110
# T6 sequence (P83110 354-453, limits assumed, looked up): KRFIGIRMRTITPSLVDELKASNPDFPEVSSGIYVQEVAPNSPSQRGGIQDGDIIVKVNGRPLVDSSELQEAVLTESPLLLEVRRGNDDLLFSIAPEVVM
# Assay: holdup assay
# Set-up: key: below the threshold = too weak to quantify, mostly under pKd 3.1 to 4
# Details: plain residues with an end cap or a label only (N-terminal biotin on a linker: ado-ado)
row,Binder,pKd
1,"SPDRDRESIV [SCN5A, Q14524]",below the threshold
2,"PPGKHLVTEV [KCNA7, Q96RP8]",below the threshold

# Target: MAGI1_1, Q96QZ7
# Assay: holdup assay
# Set-up: key: below the threshold = too weak to quantify, mostly under pKd 3.1 to 4
# Details: plain residues with an end cap or a label only (N-terminal biotin on a linker: ado-ado)
# Sequence of MAGI1_1, Q96QZ7 (Q96QZ7 1-106): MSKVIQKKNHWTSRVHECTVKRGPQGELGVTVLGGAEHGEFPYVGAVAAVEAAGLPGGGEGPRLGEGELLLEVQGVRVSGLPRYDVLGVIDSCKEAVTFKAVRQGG
row,Binder,pKd
1,"SPDRDRESIV [SCN5A, Q14524]",below the threshold
2,"PPGKHLVTEV [KCNA7, Q96RP8]",below the threshold

# Target: MAGI2_6, Q86UL8
# Assay: holdup assay
# Set-up: key: below the threshold = too weak to quantify, mostly under pKd 3.1 to 4
# Details: plain residues with an end cap or a label only (N-terminal biotin on a linker: ado-ado)
# Sequence of MAGI2_6, Q86UL8 (Q86UL8 1141-1229): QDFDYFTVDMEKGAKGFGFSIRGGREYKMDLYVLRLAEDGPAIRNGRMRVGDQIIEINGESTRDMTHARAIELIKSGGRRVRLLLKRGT
row,Binder,pKd
1,"SPDRDRESIV [SCN5A, Q14524]",3.67
2,"PPGKHLVTEV [KCNA7, Q96RP8]",4.51

# Target: T7, MPP6, Q9NZW5
# T7 sequence (Q9NZW5 125-219, limits assumed, looked up): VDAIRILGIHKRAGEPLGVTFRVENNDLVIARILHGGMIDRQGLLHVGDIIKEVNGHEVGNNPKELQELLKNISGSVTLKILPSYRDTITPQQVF
# Assay: holdup assay
# Set-up: key: below the threshold = too weak to quantify, mostly under pKd 3.1 to 4
# Details: plain residues with an end cap or a label only (N-terminal biotin on a linker: ado-ado)
row,Binder,pKd
1,"SPDRDRESIV [SCN5A, Q14524]",below the threshold
2,"PPGKHLVTEV [KCNA7, Q96RP8]",below the threshold

# Target: T8, MPP7, Q5T2T1
# T8 sequence (Q5T2T1 134-230, limits assumed, looked up): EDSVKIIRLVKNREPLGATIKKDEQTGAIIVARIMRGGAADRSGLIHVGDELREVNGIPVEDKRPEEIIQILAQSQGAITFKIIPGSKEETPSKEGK
# Assay: holdup assay
# Set-up: key: below the threshold = too weak to quantify, mostly under pKd 3.1 to 4
# Details: plain residues with an end cap or a label only (N-terminal biotin on a linker: ado-ado)
row,Binder,pKd
1,"SPDRDRESIV [SCN5A, Q14524]",below the threshold
2,"PPGKHLVTEV [KCNA7, Q96RP8]",below the threshold

# Target: T9, NHERF3_4, Q5T2W1
# T9 sequence (Q5T2W1 373-468, limits assumed, looked up): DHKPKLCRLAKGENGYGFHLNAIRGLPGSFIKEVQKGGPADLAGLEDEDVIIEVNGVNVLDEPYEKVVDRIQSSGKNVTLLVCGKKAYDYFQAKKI
# Assay: holdup assay
# Set-up: key: below the threshold = too weak to quantify, mostly under pKd 3.1 to 4
# Details: plain residues with an end cap or a label only (N-terminal biotin on a linker: ado-ado)
row,Binder,pKd
1,"SPDRDRESIV [SCN5A, Q14524]",below the threshold
2,"PPGKHLVTEV [KCNA7, Q96RP8]",below the threshold

# Target: T10, PDZD7_3, Q9H5P4
# T10 sequence (Q9H5P4 857-944, limits assumed, looked up): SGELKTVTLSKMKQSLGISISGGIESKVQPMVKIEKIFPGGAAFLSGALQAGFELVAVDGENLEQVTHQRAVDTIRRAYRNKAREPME
# Assay: holdup assay
# Set-up: key: below the threshold = too weak to quantify, mostly under pKd 3.1 to 4
# Details: plain residues with an end cap or a label only (N-terminal biotin on a linker: ado-ado)
row,Binder,pKd
1,"SPDRDRESIV [SCN5A, Q14524]",4.63
2,"PPGKHLVTEV [KCNA7, Q96RP8]",5.2

# Target: T11, RHPN1, Q8TCX5
# T11 sequence (Q8TCX5 508-602, limits assumed, looked up): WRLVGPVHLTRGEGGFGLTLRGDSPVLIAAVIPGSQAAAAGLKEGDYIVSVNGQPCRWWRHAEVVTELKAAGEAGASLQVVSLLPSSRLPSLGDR
# Assay: holdup assay
# Set-up: key: below the threshold = too weak to quantify, mostly under pKd 3.1 to 4
# Details: plain residues with an end cap or a label only (N-terminal biotin on a linker: ado-ado)
row,Binder,pKd
1,"SPDRDRESIV [SCN5A, Q14524]",4.89
2,"PPGKHLVTEV [KCNA7, Q96RP8]",4.37

# Target: T12, SNTA1, Q13424
# T12 sequence (Q13424 82-180, limits assumed, looked up): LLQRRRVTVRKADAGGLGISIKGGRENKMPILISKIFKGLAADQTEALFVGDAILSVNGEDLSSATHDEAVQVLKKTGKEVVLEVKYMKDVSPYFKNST
# Assay: holdup assay
# Set-up: key: below the threshold = too weak to quantify, mostly under pKd 3.1 to 4
# Details: plain residues with an end cap or a label only (N-terminal biotin on a linker: ado-ado)
row,Binder,pKd
1,"SPDRDRESIV [SCN5A, Q14524]",6.16
2,"PPGKHLVTEV [KCNA7, Q96RP8]",3.95

# Target: T13, SNTG1, Q9NSN8
# T13 sequence (Q9NSN8 52-150, limits assumed, looked up): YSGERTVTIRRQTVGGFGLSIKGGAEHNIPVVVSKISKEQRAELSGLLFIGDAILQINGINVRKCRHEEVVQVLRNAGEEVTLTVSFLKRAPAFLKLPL
# Assay: holdup assay
# Set-up: key: below the threshold = too weak to quantify, mostly under pKd 3.1 to 4
# Details: plain residues with an end cap or a label only (N-terminal biotin on a linker: ado-ado)
row,Binder,pKd
1,"SPDRDRESIV [SCN5A, Q14524]",4.72
2,"PPGKHLVTEV [KCNA7, Q96RP8]",4.35

# Target: TJP1_2, Q07157
# Assay: holdup assay
# Set-up: key: below the threshold = too weak to quantify, mostly under pKd 3.1 to 4
# Details: plain residues with an end cap or a label only (N-terminal biotin on a linker: ado-ado)
# Sequence of TJP1_2, Q07157 (Q07157 181-274): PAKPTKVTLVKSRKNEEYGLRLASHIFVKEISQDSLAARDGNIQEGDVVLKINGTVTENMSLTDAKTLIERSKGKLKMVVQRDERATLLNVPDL
row,Binder,pKd
1,"SPDRDRESIV [SCN5A, Q14524]",3.49
2,"PPGKHLVTEV [KCNA7, Q96RP8]",below the threshold

# Target: T14, TJP3_3, O95049
# T14 sequence (O95049 375-456, limits assumed, looked up): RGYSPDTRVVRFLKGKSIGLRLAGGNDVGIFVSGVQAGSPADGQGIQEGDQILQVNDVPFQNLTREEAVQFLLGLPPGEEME
# Assay: holdup assay
# Set-up: key: below the threshold = too weak to quantify, mostly under pKd 3.1 to 4
# Details: plain residues with an end cap or a label only (N-terminal biotin on a linker: ado-ado)
row,Binder,pKd
1,"SPDRDRESIV [SCN5A, Q14524]",below the threshold
2,"PPGKHLVTEV [KCNA7, Q96RP8]",below the threshold

# Target: T15, TX1BP3, O14907
# T15 sequence (O14907 10-122, limits assumed, looked up): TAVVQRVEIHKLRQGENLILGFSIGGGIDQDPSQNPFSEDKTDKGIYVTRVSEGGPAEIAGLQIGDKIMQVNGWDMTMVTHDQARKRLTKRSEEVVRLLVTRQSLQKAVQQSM
# Assay: holdup assay
# Set-up: key: below the threshold = too weak to quantify, mostly under pKd 3.1 to 4
# Details: plain residues with an end cap or a label only (N-terminal biotin on a linker: ado-ado)
row,Binder,pKd
1,"SPDRDRESIV [SCN5A, Q14524]",4.5
2,"PPGKHLVTEV [KCNA7, Q96RP8]",4.67
